Measured values taken from the supplement of paper PMC10724198.
± gives the standard deviation of the averaged measurements.

Key:
Saccharomyces cerevisiae [1] = assay: protein stability index of tFT-peptide fusion (C-terminal peptide) (PSI (0-1 scale)); higher = more stable (slower turnover)
Protocol: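 MPS profiling in S. cerevisiae of the tFT-X12 degron library: putative degron peptides plus stable controls, 12 aa, fused to the C-terminus of a sfGFP-mCherry timer. Cells are FACS-sorted into 8 mCherry/sfGFP bins and deep-sequenced. PSI runs from 0 (unstable) to 1 (stable). Backgrounds are wild type, das1Δ and doa10Δ at 30 °C, and wild type, das1Δ, cdc34-1 and cdc53-1 at 37 °C; 2-3 technical replicates each.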

Saccharomyces cerevisiae [2] = assay: as above; settings: genetic background: wild type; temperature: 30 C
[3] = genetic background: cdc34-1, temperature: 37 C
[4] = genetic background: cdc53-1, temperature: 37 C
[5] = genetic background: das1 deletion, temperature: 30 C
[6] = genetic background: das1 deletion, temperature: 37 C
[7] = genetic background: doa10 deletion, temperature: 30 C
[8] = genetic background: wild type, temperature: 30 C
[9] = genetic background: wild type, temperature: 37 C
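Further: PSI is a weighted mean of sequencing reads over stability bins, variants kept only with over 10 reads, mCherry proximal and sfGFP distal, peptide attached via GGGS linker.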

Sequence	protein stability index (Saccharomyces cerevisiae [1]; [3])	protein stability index (Saccharomyces cerevisiae [1]; [4])	protein stability index (Saccharomyces cerevisiae [1]; [5])	protein stability index (Saccharomyces cerevisiae [1]; [6])	protein stability index (Saccharomyces cerevisiae [1]; [7])	protein stability index (Saccharomyces cerevisiae [1]; [8])	protein stability index (Saccharomyces cerevisiae [1]; [9])	protein stability index (Saccharomyces cerevisiae [2])
QWRMLTCLMERL	0.446 ± 0.034	0.553 ± 0.063	0.472 ± 0.015	0.4882 ± 0.0037	0.398 ± 0.056	0.379 ± 0.012	0.496 ± 0.03	0.379 ± 0.012
TSPYTSFAHTSL	0.694 ± 0.029	0.739 ± 0.016	0.677 ± 0.031	0.739 ± 0.0074	0.662 ± 0.017	0.6569 ± 0.006	0.71286 ± 0.00012	0.69 ± 0.022
PYPPTSLPPTWQ	0.672 ± 0.043	0.7459 ± 0.0012	0.652 ± 0.0095	0.711 ± 0.017	0.678 ± 0.023	0.671 ± 0.038	0.701 ± 0.025	0.726 ± 0.026
LFSCTQLLPITA	0.0614 ± 0.017	0.077 ± 0.012	0.173 ± 0.02	0.198 ± 0.0068	0.141 ± 0.013	0.176 ± 0.018	0.166 ± 0.0061	0.245 ± 0.032
FCVLLFCAVSDL	0.289 ± 0.032	0.383 ± 0.03	0.239 ± 0.036	0.4433 ± 0.0013	0.212 ± 0.0092	0.24 ± 0.036	0.398 ± 0.0074	0.317 ± 0.03
LILIVVVAGSVG	0.201 ± 0.019	0.392 ± 0.088	0.226 ± 0.027	0.437 ± 0.0066	0.206 ± 0.014	0.23 ± 0.013	0.385 ± 0.015	0.269 ± 0.038
RGLANLIVIVSS	0.572 ± 0.04	0.602 ± 0.0069	0.397 ± 0.022	0.603 ± 0.015	0.186 ± 0.012	0.228 ± 0.027	0.392 ± 0.011	0.374 ± 0.013
ISHLQCFFVVML	0.439 ± 0.029	0.507 ± 0.025	0.355 ± 0.026	0.563 ± 0.016	0.3759 ± 0.0013	0.346 ± 0.034	0.485 ± 0.0089	0.489 ± 0.042
NQIIRLIVGLLC	0.55 ± 0.039	0.601 ± 0.017	0.486 ± 0.017	0.5867 ± 0.0055	0.193 ± 0.014	0.224 ± 0.011	0.355 ± 0.02	0.291 ± 0.016
GFVLLCFCCRTW	0.28 ± 0.01	0.421 ± 0.052	0.287 ± 0.032	0.4828 ± 0.0044	0.2477 ± 0.00056	0.277 ± 0.035	0.426 ± 0.03	0.393 ± 0.004
VLLSSSLVFLIS	0.597 ± 0.022	0.6439 ± 0.0011	0.522 ± 0.016	0.631 ± 0.018	0.385 ± 0.016	0.416 ± 0.02	0.575 ± 0.0085	0.462 ± 0.044
TLFSPPVLATPS	0.624 ± 0.042	0.6754 ± 0.0047	0.528 ± 0.026	0.676 ± 0.0092	0.513 ± 0.021	0.54 ± 0.014	0.644 ± 0.0088	0.0225 ± 0.011
FGFFLFIFFFFR	0.246 ± 0.044	0.295 ± 0.027	0.301 ± 0.032	0.429 ± 0.015	0.333 ± 0.0034	0.276 ± 0.039	0.349 ± 0.031	0.402 ± 0.12
GFSEGRLTIPVY	0.453 ± 0.025	0.4949 ± 0.0041	0.343 ± 0.04	0.5097 ± 0.0018	0.2949 ± 0.0027	0.345 ± 0.06	0.476 ± 0.01	0.455 ± 0.047
EFWWPFDRRGVI	0.76 ± 0.037	0.807 ± 0.011	0.7244 ± 0.0059	0.83 ± 0.015	0.721 ± 0.029	0.7117 ± 0.0043	0.822 ± 0.012	0.748 ± 0.011
LGCLVWGGVWGV	0.706 ± 0.04	0.7595 ± 0.00079	0.625 ± 0.0078	0.737 ± 0.025	0.628 ± 0.021	0.638 ± 0.016	0.727 ± 0.041	0.479 ± 0.019
PRLWLYCLIISL	0.173 ± 0.032	0.214 ± 0.016	0.186 ± 0.039	0.335 ± 0.015	0.157 ± 0.011	0.14 ± 0.03	0.277 ± 0.022	0.2062 ± 0.00075
ISFQFFVCLCAR	0.13 ± 0.0054	0.181 ± 0.0063	0.159 ± 0.022	0.289 ± 0.0036	0.145 ± 0.005	0.161 ± 0.018	0.253 ± 0.0092	0.234 ± 0.019
WSISFGLLVCWV	0.27 ± 0.045	0.322 ± 0.0049	0.199 ± 0.019	0.42 ± 0.013	0.154 ± 0.012	0.191 ± 0.016	0.379 ± 0.066	0.233 ± 0.039
WVGGVLLSVVGG	0.158 ± 0.014	0.413 ± 0.041	0.213 ± 0.028	0.349 ± 0.0084	0.179 ± 0.01	0.192 ± 0.029	0.399 ± 0.059	0.245 ± 0.014
